Assay results from EP2506881B1.

Key:
Trop-2 (human) [1] = molecular target: Trop-2 (human) (UniProt P09758); test: ELISA on Trop-2-expressing cell lines PC-3 and Calu-3
Trop-2 (human) [2] = molecular target: Trop-2 (human) (UniProt P09758); test: cell-based or functional assay
Trop-2 (human) [3] = molecular target: Trop-2 (human) (UniProt P09758); test: ELISA on Trop-2-expressing cell lines PC-3 and Calu-3, apparent KD

Sequence of UniProt P09758 (P09758 27-323): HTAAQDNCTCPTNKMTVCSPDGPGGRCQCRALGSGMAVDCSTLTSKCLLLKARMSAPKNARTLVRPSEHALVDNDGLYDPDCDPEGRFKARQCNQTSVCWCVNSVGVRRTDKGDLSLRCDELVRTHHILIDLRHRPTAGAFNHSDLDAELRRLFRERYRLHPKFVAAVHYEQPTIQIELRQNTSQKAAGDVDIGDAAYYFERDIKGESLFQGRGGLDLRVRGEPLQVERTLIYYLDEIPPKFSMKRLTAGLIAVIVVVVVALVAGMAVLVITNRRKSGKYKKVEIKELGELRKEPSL

## 2L-Rap(Q)-hRS7 (from UniProt P22069 1-104)
Trop-2 (human) [1]
  fold of apparent KD against hRS7: 2 fold
Trop-2 (human) [2]
  EC50, MTS cell proliferation assay, Calu-3 cells: 8.5 nM
  EC50, MTS cell proliferation assay, MDA-MB-468 cells: 3.8 nM
  EC50, MTS cell proliferation assay, ME-180 cells: 1.5 nM
  EC50, MTS cell proliferation assay, T-47D cells: 2 nM
Trop-2 (human) [3]
  Kd: 0.28 nM

B1: humanized RS7 anti-Trop-2 antibody (hRS7 IgG) (antibody, INN chains, looked up, V domains shown)
VH: QVQLQQSGSELKKPGASVKVSCKASGYTFTNYGMNWVKQAPGQGLKWMGWINTYTGEPTYTDDFKGRFAFSLDTSVSTAYLQISSLKADDTAVYFCARGGFGSSYWYFDVWGQGSLVTVSS
VL: DIQLTQSPSSLSASVGDRVSITCKASQDVSIAVAWYQQKPGKAPKLLIYSASYRYTGVPDRFSGSGSGTDFTLTISSLQPEDFAVYYCQQHYITPLTFGAGTKVEIK
modifications: IgG
Trop-2 (human) [3]
  Kd: 0.14 nM
